We go through one substance from PMC5696648.

The Kd is the free concentration of one partner at which half of the binding sites on the other are occupied at equilibrium, for simple one-to-one binding. Higher therefore signals lower affinity.

The subject of series [1] is LexA WT (Escherichia coli). Put plainly: EMSA. In general terms: In EMSA bound probe runs differently from free probe, usually more slowly.
In series [2] the test system is LexA S119A (Escherichia coli). Put plainly: EMSA.

On to 44-bp SOS consensus operator duplex, for which the dissociation constant Kd in series [1] was determined as 0.047 µM; in series [2], 0.043 µM.
